Test results taken from patent US20250122257A1, “USE OF KININ OR DERIVATIVE THEREOF IN TREATING VCI, PSCI, OR CSVD” (ZonHon Biopharma Institute, Inc., priority 2022, published 2025).
Where two headings read alike, the source gives them in different places. Square brackets hold non-standard residues; d marks the D form. Ends that are not written are not given here. Peptide text beside a SMILES is read from it. 2Thi = N[C@@H](Cc1cccs1)C(=O)O

How the values were obtained:
B2 receptor = target: T1, B2 receptor (Homo sapiens, UniProt P30411); test: Affinity activity to B2 receptor, reporter gene assay in B2-NFAT-CHO-K1 cells; format: cell-based; settings: relative activity calculated from EC50, 5 hours
T1 construct: expressed in transfected cells
T1 sequence (P30411 1-391): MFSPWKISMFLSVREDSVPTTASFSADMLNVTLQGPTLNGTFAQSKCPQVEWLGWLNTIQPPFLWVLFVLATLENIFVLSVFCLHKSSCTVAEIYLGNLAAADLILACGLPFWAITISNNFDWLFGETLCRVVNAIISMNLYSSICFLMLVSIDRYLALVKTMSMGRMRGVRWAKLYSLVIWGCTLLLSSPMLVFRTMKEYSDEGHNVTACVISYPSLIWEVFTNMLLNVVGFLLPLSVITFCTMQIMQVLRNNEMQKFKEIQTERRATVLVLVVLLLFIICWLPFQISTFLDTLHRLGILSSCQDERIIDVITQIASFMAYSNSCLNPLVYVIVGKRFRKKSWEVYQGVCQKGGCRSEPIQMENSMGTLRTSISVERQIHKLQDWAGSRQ
Protocol: The cell line B2-NFAT-CHO-K1 stably transfected with B2 receptor reporter gene was constructed based on CHO-K1 host cells and the cell library was constructed. The B2-NFAT-CHO-K1 cell library was used to evaluate the binding activity of lysyl bradykinin/bradykinin or its variants or PEG modified products to B2 receptor in vitro.
Detection methods: The cells were cultured in 96-well plates at 5×10^4cells/well, 37° C., 5% CO2 for 16-20 hours, and then gradient diluted standard and test solutions were added. After 5 hours, added Bio-Lite luciferase detection reagent and the chemiluminescence intensity was measured. GraphPad was used to make four-parameter equation curve and calculate the relative activity according to the EC50 value.
(§1) In vitro B2-receptor affinity activity and activity of activating downstream signaling pathway of PEG conjugates of lysyl bradykinin and its variants were tested, as in Example 3.

[1] = in vivo, cited from earlier work
[2] = test system: B2 receptor downstream signals p-CREB and p-ERK1/2; test: Phosphorylation of downstream ERK1/2 and CREB by WB in CHO-K1 (B2R+) cells; format: cell-based; settings: FIG. 3, WB
Protocol: as §1

Lys-BKm09: {THI}SPFR, SEQ ID NO 10 ([2Thi]SPFR)
Relative affinity activity to B2 receptor (B2 receptor): 0%

Lys-BKm10: SPFR, SEQ ID NO 11
Relative affinity activity to B2 receptor (B2 receptor): 0%

NC(N)=NCCC[C@H](NC(=O)[C@H](Cc1ccccc1)NC(=O)[C@@H]1CCCN1C(=O)[C@H](CO)NC(=O)[C@H](Cc1ccccc1)NC(=O)CNC(=O)[C@@H]1CCCN1C(=O)[C@@H]1CCCN1C(=O)[C@@H](N)CCCN=C(N)N)C(=O)O [BK, bradykinin] (H-RPPGFSPFR-OH)
Half-life ([1]; reported): only seconds

Lys-BKm08: PG{THI}SPFR, SEQ ID NO 9 (PG[2Thi]SPFR)
Relative affinity activity to B2 receptor (B2 receptor): <10%

Lys-BKm13-SPA5K: Lys-BKm13 modified with SPA5K PEG (CRRPPG[2Thi]SPFR; also: modified with SPA5K PEG, site not given here)
Activity of PEG conjugates in activating phosphorylation of ERK1/2 and CREB (in words) [2]: highest activity among different peptide variants

NCCCC[C@H](N)C(=O)N[C@@H](CCCN=C(N)N)C(=O)N1CCC[C@H]1C(=O)N1CCC[C@H]1C(=O)NCC(=O)N[C@@H](Cc1ccccc1)C(=O)N[C@@H](CO)C(=O)N1CCC[C@H]1C(=O)N[C@@H](Cc1ccccc1)C(=O)N[C@@H](CCCN=C(N)N)C(=O)O [Lys-BK, lysyl bradykinin]
Half-life [1]: only seconds
